According to US20230212587A1, “Mutant Hydroxyphenylpyruvate Dioxygenase Polypeptide, Encoding Gene Thereof and Use Therefor” (Beijing Dabeinong Biotechnology Co., Ltd., priority 2019, published 2023):

Tested on: Arabidopsis thaliana T1 plants
Experiment: Topramezone tolerance of transgenic Arabidopsis thaliana T1 plants (pesticide damage grade by bleached leaf area, score, resistance evaluation)
Type: in vivo
Conditions: HPPDs from different species, 7 DAT; for Classification and statistics of pesticide damage grade Grade 0 / Classification and statistics of pesticide damage grade Grade 1 / Classification and statistics of pesticide damage grade Grade 2 / Classification and statistics of pesticide damage grade Grade 3: number of plants (of 16) in this grade; for Scores: score for pesticide damage 0-100
Procedure, shortened: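 Herbicide tolerance was judged per plant on a bleaching scale (grade 0 no bleaching to grade 3 fully bleached) 7 DAT. Topramezone doses were 0, 25, 50 and 100 g ai/ha on 18-day-old T1 and wild-type plants.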

B1: NtHPPD-02: native Nicotiana tabacum HPPD, SEQ ID NO: 111 (protein, listed as Nicotiana tabacum)
chain: MGKLETVTTTSAAAADDSSELTTNFKLVGFKNFIRTNPRSDFFSVKSFHHIEFWCGDATNTARRFSWSLGMPIAAKSDLSTGNSVHASYLLRPVSGSLQFLFTAPYSPSISTPSSAAIPSFSTSTHRSFTTTHGLGVRAVALEVENAYTAFSASVSRGAKPMFEPVTIDEQVAMAEVHLYGDVVLRFVSYLKDADNLVFLPGFEAMDETASYKELDYGIRRLDHAVGNVPELGPVVDYIKRFTGFHEFAEFTAEDVGTAESGLNSMVLANNDETVLLPLNEPVYGTKRKSQIQTYLEHNEGAGVQHLALVTEDIFKTLTEMRKRSGVGGFEFMPSPPPTYYKNLKNRAGDVLSDEQILACEELGILVDRDDQGTLLQIFTKPVGDRPTIFIEIIQRIGCMLKDGKGQVYQKGGCGGFGKGNFSELFRSIEEYEKTLEAKQANQVAAA
modifications: NtHPPD Amino Acid Sequence
Topramezone 25 g ai/ha (1x)
  Classification and statistics of pesticide damage grade Grade 0: 0
  Classification and statistics of pesticide damage grade Grade 1: 0
  Classification and statistics of pesticide damage grade Grade 2: 0
  Classification and statistics of pesticide damage grade Grade 3: 16
  Scores: 100
  Resistance evaluation: non-resistant (non-resistant plants (scores 68-100))
Topramezone 100 g ai/ha (4x)
  Classification and statistics of pesticide damage grade Grade 0: 0
  Classification and statistics of pesticide damage grade Grade 1: 0
  Classification and statistics of pesticide damage grade Grade 2: 0
  Classification and statistics of pesticide damage grade Grade 3: 16
  Scores: 100
  Resistance evaluation: non-resistant (non-resistant plants (scores 68-100))

B2: MsHPPDm-F372A-02: Medicago sativa HPPD mutant F372A, SEQ ID NO: 102 (protein)
chain: MAIETETQTQTGFKLVGFKNFVRANPKSDRFKVKRFHHVEFWCTDATNTARRFSHGLGMPIVAKSDLSTGNQTHASYLLRSGDLNFLFSAAYSPSISLSSPSSTAAIPTFSASNCFSFSASHGLAVRAVAVEVEDAELAFTTSVNNGAIPSSPPVILENHVKLAEVRLYGDVVLRYVSYNDPNPNQNPNLLFLPGFERVSDESSNSSLDFGIRRLDHAVGNVPELSSAVKYVKDFTGFHEFAEFTAEDVGTSESGLNSVVLANNEETVLLPMNEPVYGTKRKSQIETYLEHNEGAGLQHLALKSEDIFRTLREMRKRSGVGGFEFMPSPPVTYYRNLKNRVGDVLSDEQIKECEELGILVDRDDQGTLLQIATKPIGDRPTIFIEIIQRVGCMLKDEEGKEYQKGGCGGFGKGNFSELFKSIEEYEKTLETRRTA
modifications: MsHPPDm-F372A Amino Acid Sequence
Topramezone 25 g ai/ha (1x)
  Classification and statistics of pesticide damage grade Grade 0: 5
  Classification and statistics of pesticide damage grade Grade 1: 7
  Classification and statistics of pesticide damage grade Grade 2: 4
  Classification and statistics of pesticide damage grade Grade 3: 0
  Scores: 31
  Resistance evaluation: moderately resistant (moderately resistant plants (scores 16-33))
Topramezone 100 g ai/ha (4x)
  Classification and statistics of pesticide damage grade Grade 0: 0
  Classification and statistics of pesticide damage grade Grade 1: 4
  Classification and statistics of pesticide damage grade Grade 2: 9
  Classification and statistics of pesticide damage grade Grade 3: 3
  Scores: 65
  Resistance evaluation: poorly resistant (poorly resistant plants (scores 34-67))

B3: BvHPPD-02: native Beta vulgaris HPPD, SEQ ID NO: 105 (protein, listed as Beta vulgaris)
chain: MGTLSPQPQTSPSQFKLVGYSNFIRVNPLSDLFPVKRFHHVEFWCGDATNVSRRFSWGLGMPIVAKSDLSTGNSVHASYLLRSGELHFLFTSPYSPSLSSPSSATIPTFSFSLFTSFLTSHGLAVRAVAVEVQDAEAAFHISVSNGASPVSPPIRLHDGVVLSEVHLYGDVVLRYVSTSSVVDGIFLPGFEEMLGESSFQELDFGLRRLDHAVGNVPELAPAIEYVKKFTGFHEFAEFTTEDVGTSESGLNSAVVANNDETVLFPMNEPVYGTKRKSQIQTYLEHNEGAGVQHLALMSEDIFWTLREMRKRSGLGGFEFMPSPPPTYYRNLRNRAADVLSEEQMKECEELGILVDKDDQGTLLQIFTKPIGDRPTMFIEIIQRIGCMMKDEEGKVYQKGGCGGFGKGNFSELFKSIEEYEKTLERKPIADTNAT
modifications: BvHPPD Amino Acid Sequence
Topramezone 25 g ai/ha (1x)
  Classification and statistics of pesticide damage grade Grade 0: 0
  Classification and statistics of pesticide damage grade Grade 1: 0
  Classification and statistics of pesticide damage grade Grade 2: 0
  Classification and statistics of pesticide damage grade Grade 3: 16
  Scores: 100
  Resistance evaluation: non-resistant (non-resistant plants (scores 68-100))
Topramezone 100 g ai/ha (4x)
  Classification and statistics of pesticide damage grade Grade 0: 0
  Classification and statistics of pesticide damage grade Grade 1: 0
  Classification and statistics of pesticide damage grade Grade 2: 0
  Classification and statistics of pesticide damage grade Grade 3: 16
  Scores: 100
  Resistance evaluation: non-resistant (non-resistant plants (scores 68-100))

B4: BvHPPDm-F372A-02: Beta vulgaris HPPD mutant F372A, SEQ ID NO: 108 (protein)
chain: MGTLSPQPQTSPSQFKLVGYSNFIRVNPLSDLFPVKRFHHVEFWCGDATNVSRRFSWGLGMPIVAKSDLSTGNSVHASYLLRSGELHFLFTSPYSPSLSSPSSATIPTFSFSLFTSFLTSHGLAVRAVAVEVQDAEAAFHISVSNGASPVSPPIRLHDGVVLSEVHLYGDVVLRYVSTSSVVDGIFLPGFEEMLGESSFQELDFGLRRLDHAVGNVPELAPAIEYVKKFTGFHEFAEFTTEDVGTSESGLNSAVVANNDETVLFPMNEPVYGTKRKSQIQTYLEHNEGAGVQHLALMSEDIFWTLREMRKRSGLGGFEFMPSPPPTYYRNLRNRAADVLSEEQMKECEELGILVDKDDQGTLLQIATKPIGDRPTMFIEIIQRIGCMMKDEEGKVYQKGGCGGFGKGNFSELFKSIEEYEKTLERKPIADTNAT
modifications: BvHPPDm-F372A Amino Acid Sequence
Topramezone 25 g ai/ha (1x)
  Classification and statistics of pesticide damage grade Grade 0: 0
  Classification and statistics of pesticide damage grade Grade 1: 6
  Classification and statistics of pesticide damage grade Grade 2: 10
  Classification and statistics of pesticide damage grade Grade 3: 0
  Scores: 54
  Resistance evaluation: poorly resistant (poorly resistant plants (scores 34-67))
Topramezone 100 g ai/ha (4x)
  Classification and statistics of pesticide damage grade Grade 0: 0
  Classification and statistics of pesticide damage grade Grade 1: 0
  Classification and statistics of pesticide damage grade Grade 2: 4
  Classification and statistics of pesticide damage grade Grade 3: 12
  Scores: 92
  Resistance evaluation: non-resistant (non-resistant plants (scores 68-100))
